Source: the supplement of paper PMC11316812
± gives the standard deviation of the averaged measurements.

Experiments:
MCF7 = test: percentage of EdU-negative (G0-arrested) nuclei per well, 72 h; higher = more G0 arrest; details: reference: sequence is the full UniProt precursor, the tested protein was the secreted form or ectodomain
hTERT-HMEC = test: as above; details: reference: sequence is the full UniProt precursor, the tested protein was the secreted form or ectodomain
[1] = protein concentration 0.00925 µM
[2] = protein concentration 0.0925 µM
[3] = protein concentration 0.0225 µM
[4] = protein concentration 0.0072075 µM
[5] = protein concentration 0.072075 µM
[6] = protein concentration 0.0209225 µM
[7] = protein concentration 0.209225 µM
[8] = protein concentration 0.0217075 µM
[9] = protein concentration 0.217075 µM
[10] = protein concentration 0.00775 µM
[11] = protein concentration 0.0775 µM
[12] = protein concentration 0.01025 µM
[13] = protein concentration 0.1025 µM
[14] = protein concentration 0.0267275 µM
[15] = protein concentration 0.267275 µM
[16] = protein concentration 0.0215 µM
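Also: secreted proteins added to cultured cells, EdU pulse at the end, nuclei found by Hoechst imaging, EdU status from nuclear versus surrounding ring intensity ratio, PBS as neutral control.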

MSILFYVIFLAYLRGIQGNNMDQRSLPEDSLNSLIIKLIQADILKNKLSKQMVDVKENYQSTLPKAEAPREPERGGPAKSAFQPVIAMDTELLRQQRRYNSPRVLLSDSTPLEPPPLYLMEDYVGSPVVANRTSRRKRYAEHKSHRGEYSVCDSESLWVTDKSSAIDIRGHQVTVLGEIKTGNSPVKQYFYETRCKEARPVKNGCRGIDDKHWNSQCKTSQTYVRALTSENNKLVGWRWIRIDTSCVCALSRKIGRT
percentage of EdU-negative (MCF7; [1]): 25.37 ± 0.049% | percentage of EdU-negative (MCF7; [2]): 27.3 ± 1.8% | percentage of EdU-negative (hTERT-HMEC; [1]): 4.75 ± 0.28% | percentage of EdU-negative (hTERT-HMEC; [2]): 6.72 ± 0.33%

MLLLLTLALLGGPTWAGKMYGPGGGKYFSTTEDYDHEITGLRVSVGLLLVKSVQVKLGDSWDVKLGALGGNTQEVTLQPGEYITKVFVAFQAFLRGMVMYTSKDRYFYFGKLDGQISSAYPSQEGQVLVGIYGQYQLLGIKSIGFEWNYPLEEPTTEPPVNLTYSANSPVGR [Q96DA0]
percentage of EdU-negative (MCF7; [3]): 25.49 ± 0.17% | percentage of EdU-negative (MCF7; protein concentration 0.225 µM): 24.3 ± 2.2% | percentage of EdU-negative (hTERT-HMEC; [3]): 5.62 ± 0.12% | percentage of EdU-negative (hTERT-HMEC; protein concentration 0.225 µM): 9.31 ± 0.28%

MGKPWLRALQLLLLLGASWARAGAPRCTYTFVLPPQKFTGAVCWSGPASTRATPEAANASELAALRMRVGRHEELLRELQRLAAADGAVAGEVRALRKESRGLSARLGQLRAQLQHEAGPGAGPGADLGAEPAAALALLGERVLNASAEAQRAAARFHQLDVKFRELAQLVTQQSSLIARLERLCPGGAGGQQQVLPPPPLVPVVPVRLVGSTSDTSRMLDPAPEPQRDQTQRQQEPMASPMPAGHPAVPTKPVGPWQDCAEARQAGHEQSGVYELRVGRHVVSVWCEQQLEGGGWTVIQRRQDGSVNFFTTWQHYKAGFGRPDGEYWLGLEPVYQLTSRGDHELLVLLEDWGGRGARAHYDGFSLEPESDHYRLRLGQYHGDAGDSLSWHNDKPFSTVDRDRDSYSGNCALYQRGGWWYHACAHSNLNGVWHHGGHYRSRYQDGVYWAEFRGGAYSLRKAAMLIRPLKL [Q8NI99]
percentage of EdU-negative (MCF7; [4]): 23.9 ± 1.3% | percentage of EdU-negative (MCF7; [5]): 25.7 ± 0.84% | percentage of EdU-negative (hTERT-HMEC; [4]): 4.22 ± 0.45% | percentage of EdU-negative (hTERT-HMEC; [5]): 5.15 ± 0.94%

MPGQELRTVNGSQMLLVLLVLSWLPHGGALSLAEASRASFPGPSELHSEDSRFRELRKRYEDLLTRLRANQSWEDSNTDLVPAPAVRILTPEVRLGSGGHLHLRISRAALPEGLPEASRLHRALFRLSPTASRSWDVTRPLRRQLSLARPQAPALHLRLSPPPSQSDQLLAESSSARPQLELHLRPQAARGRRRARARNGDHCPLGPGRCCRLHTVRASLEDLGWADWVLSPREVQVTMCIGACPSQFRAANMHAQIKTSLHRLKPDTVPAPCCVPASYNPMVLIQKTDTGVSLQTYDDLLAKDCHCI
percentage of EdU-negative (MCF7; [6]): 23.8 ± 1.7% | percentage of EdU-negative (MCF7; [7]): 30.5 ± 2.1% | percentage of EdU-negative (hTERT-HMEC; [6]): 4.78 ± 0.13% | percentage of EdU-negative (hTERT-HMEC; [7]): 8.07 ± 2.2%

MLVDGPSERPALCFLLLAVAMSFFGSALSIDETRAHLLLKEKMMRLGGRLVLNTKEELANERLMTLKIAEMKEAMRTLIFPPSMHFFQAKHLIERSQVFNILRMMPKGAALHLHDIGIVTMDWLVRNVTYRPHCHICFTPRGIMQFRFAHPTPRPSEKCSKWILLEDYRKRVQNVTEFDDSLLRNFTLVTQHPEVIYTNQNVVWSKFETIFFTISGLIHYAPVFRDYVFRSMQEFYEDNVLYMEIRARLLPVYELSGEHHDEEWSVKTYQEVAQKFVETHPEFIGIKIIYSDHRSKDVAVIAESIRMAMGLRIKFPTVVAGFDLVGHEDTGHSLHDYKEALMIPAKDGVKLPYFFHAGETDWQGTSIDRNILDALMLNTTRIGHGFALSKHPAVRTYSWKKDIPIEVCPISNQVLKLVSDLRNHPVATLMATGHPMVISSDDPAMFGAKGLSYDFYEVFMGIGGMKADLRTLKQLAMNSIKYSTLLESEKNTFMEIWKKRWDKFIADVATK [Q9NZK5]
percentage of EdU-negative (MCF7; [8]): 24.5 ± 1.2% | percentage of EdU-negative (MCF7; [9]): 28.4 ± 1.5% | percentage of EdU-negative (hTERT-HMEC; [8]): 4.31 ± 0.15% | percentage of EdU-negative (hTERT-HMEC; [9]): 7.86 ± 0.091%

MPAIAVLAAAAAAWCFLQVESRHLDALAGGAGPNHGNFLDNDQWLSTVSQYDRDKYWNRFRDDDYFRNWNPNKPFDQALDPSKDPCLKVKCSPHKVCVTQDYQTALCVSRKHLLPRQKKGNVAQKHWVGPSNLVKCKPCPVAQSAMVCGSDGHSYTSKCKLEFHACSTGKSLATLCDGPCPCLPEPEPPKHKAERSACTDKELRNLASRLKDWFGALHEDANRVIKPTSSNTAQGRFDTSILPICKDSLGWMFNKLDMNYDLLLDPSEINAIYLDKYEPCIKPLFNSCDSFKDGKLSNNEWCYCFQKPGGLPCQNEMNRIQKLSKGKSLLGAFIPRCNEEGYYKATQCHGSTGQCWCVDKYGNELAGSRKQGAVSCEEEQETSGDFGSGGSVVLLDDLEYERELGPKDKEGKLRVHTRAVTEDDEDEDDDKEDEVGYIW
percentage of EdU-negative (MCF7; protein concentration 0.015 µM): 24.9 ± 1% | percentage of EdU-negative (MCF7; protein concentration 0.15 µM): 26.5 ± 1.8% | percentage of EdU-negative (hTERT-HMEC; protein concentration 0.015 µM): 5.37 ± 0.53% | percentage of EdU-negative (hTERT-HMEC; protein concentration 0.15 µM): 10.4 ± 1.6%

MPERLAEMLLDLWTPLIILWITLPPCIYMAPMNQSQVLMSGSPLELNSLGEEQRILNRSKRGWVWNQMFVLEEFSGPEPILVGRLHTDLDPGSKKIKYILSGDGAGTIFQINDVTGDIHAIKRLDREEKAEYTLTAQAVDWETSKPLEPPSEFIIKVQDINDNAPEFLNGPYHATVPEMSILGTSVTNVTATDADDPVYGNSAKLVYSILEGQPYFSIEPETAIIKTALPNMDREAKEEYLVVIQAKDMGGHSGGLSGTTTLTVTLTDVNDNPPKFAQSLYHFSVPEDVVLGTAIGRVKANDQDIGENAQSSYDIIDGDGTALFEITSDAQAQDGIIRLRKPLDFETKKSYTLKVEAANVHIDPRFSGRGPFKDTATVKIVVEDADEPPVFSSPTYLLEVHENAALNSVIGQVTARDPDITSSPIRFSIDRHTDLERQFNINADDGKITLATPLDRELSVWHNITIIATEIRNHSQISRVPVAIKVLDVNDNAPEFASEYEAFLCENGKPGQVIQTVSAMDKDDPKNGHYFLYSLLPEMVNNPNFTIKKNEDNSLSILAKHNGFNRQKQEVYLLPIIISDSGNPPLSSTSTLTIRVCGCSNDGVVQSCNVEAYVLPIGLSMGALIAILACIILLLVIVVLFVTLRRHKNEPLIIKDDEDVRENIIRYDDEGGGEEDTEAFDIATLQNPDGINGFLPRKDIKPDLQFMPRQGLAPVPNGVDVDEFINVRLHEADNDPTAPPYDSIQIYGYEGRGSVAGSLSSLESTTSDSDQNFDYLSDWGPRFKRLGELYSVGESDKET
percentage of EdU-negative (MCF7; [10]): 27.78 ± 0.12% | percentage of EdU-negative (MCF7; [11]): 34.9 ± 1.6% | percentage of EdU-negative (hTERT-HMEC; [10]): 5.37 ± 0.11% | percentage of EdU-negative (hTERT-HMEC; [11]): 5.69 ± 0.22%

MAGGRETCLPLIGFILICLKMVASAKSAPEIPTIDQAYSKLSNSITVEWATVPGATSYLLTAEDGDTVIETTVANSPGTVTGLKAATWYEITIRSISAAGRSQASPPKQAKTVLAAPILEVSSPSSDSILVQWEAVYMAIAFSVSIMRANGLGSIWKENTTNTSLTFTSLEAGTLYTIKAYAWNANRIPGDDSTCNQRTSPRAPANIQVSFDSGALKASFSWARAEGAFNYTVMALSDSSELTCSTTFSSCTISSLQCGTEYLISVLASNDAGSSKSSSAMTLKTVACAPGRVTIQEDPPGHLSVAWSSVDLGDYYVVFVKSDDGLEVHCNTSLTQCNFLSECGFTYFISVFVYNKAGQSPLGDIFNYTTAPCCPSDINPVLVSSDRVEIVWSPVRGAELYETKAVDGYNMVECNDTTPACTLSALECDTKYNITVYSFNEVRGSNMSCTPQFITTAPCSPEIKNVSRDAFSMINVHWRSTNDDATYTVTAQGEKGLYQCSSTGESCTMRGLPCGSVFSVTAVAETQAGRSLPSYSVPLETVPCCPTGLTVTQITQSVINVSWTIGRVAQTHVAVLESHTGQSKCHTHQNHCLLGCITCGINYTVTLKAISATGLTADCSYQSYFSGACCPLGVKLYRLGPNGIRIYWQASRGSANYSTDLYGSKGIFTCTPSAGLSFCDVTEIPCGDVYTVMVSPVAKTGLKLTFCPKKIYSVTCSGSTLGMVIYRGKRNEE [Q5VTL7]
percentage of EdU-negative (MCF7; [12]): 25.3 ± 0.94% | percentage of EdU-negative (MCF7; [13]): 35.5 ± 1% | percentage of EdU-negative (hTERT-HMEC; [12]): 4.97 ± 0.23% | percentage of EdU-negative (hTERT-HMEC; [13]): 35.6 ± 3.5%

MRLRRLALFPGVALLLAAARLAAASDVLELTDDNFESRISDTGSAGLMLVEFFAPWCGHCKRLAPEYEAAATRLKGIVPLAKVDCTANTNTCNKYGVSGYPTLKIFRDGEEAGAYDGPRTADGIVSHLKKQAGPASVPLRTEEEFKKFISDKDASIVGFFDDSFSEAHSEFLKAASNLRDNYRFAHTNVESLVNEYDDNGEGIILFRPSHLTNKFEDKTVAYTEQKMTSGKIKKFIQENIFGICPHMTEDNKDLIQGKDLLIAYYDVDYEKNAKGSNYWRNRVMMVAKKFLDAGHKLNFAVASRKTFSHELSDFGLESTAGEIPVVAIRTAKGEKFVMQEEFSRDGKALERFLQDYFDGNLKRYLKSEPIPESNDGPVKVVVAENFDEIVNNENKDVLIEFYAPWCGHCKNLEPKYKELGEKLSKDPNIVIAKMDATANDVPSPYEVRGFPTIYFSPANKKLNPKKYEGGRELSDFISYLQREATNPPVIQEEKPKKKKKAQEDL
percentage of EdU-negative (MCF7; [14]): 23.5 ± 0.4% | percentage of EdU-negative (MCF7; [15]): 26.1 ± 0.34% | percentage of EdU-negative (hTERT-HMEC; [14]): 5.82 ± 1% | percentage of EdU-negative (hTERT-HMEC; [15]): 5.84 ± 0.16%

MATMENKVICALVLVSMLALGTLAEAQTETCTVAPRERQNCGFPGVTPSQCANKGCCFDDTVRGVPWCFYPNTIDVPPEEECEF
percentage of EdU-negative (MCF7; [16]): 25.09 ± 0.25% | percentage of EdU-negative (MCF7; protein concentration 0.215 µM): 25 ± 1.6% | percentage of EdU-negative (hTERT-HMEC; [16]): 4.62 ± 0.35% | percentage of EdU-negative (hTERT-HMEC; protein concentration 0.215 µM): 5.31 ± 0.26%
